Values quoted from earlier work in PMC11003968, “Identification of small molecules affecting the interaction between human hemoglobin and Staphylococcus aureus IsdB hemophore” (Scientific Reports, 2024).

Key:
[1] = biological target: IsdB (Staphylococcus aureus) (UniProt A7X146); assay: SPR
[2] = biological target: oxyhemoglobin dimer (Homo sapiens) (UniProt P69905)

Chain of oxyhemoglobin dimer (P69905 2-142): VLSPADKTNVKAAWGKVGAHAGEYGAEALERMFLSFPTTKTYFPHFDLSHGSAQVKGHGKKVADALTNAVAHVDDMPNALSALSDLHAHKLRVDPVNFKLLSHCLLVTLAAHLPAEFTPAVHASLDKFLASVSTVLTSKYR
Chain of oxyhemoglobin dimer (P68871 2-147, further chain): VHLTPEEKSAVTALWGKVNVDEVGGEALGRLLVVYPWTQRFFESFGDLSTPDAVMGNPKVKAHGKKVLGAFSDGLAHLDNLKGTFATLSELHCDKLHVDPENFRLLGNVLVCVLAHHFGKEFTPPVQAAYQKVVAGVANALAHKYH
Chain of hemoglobin (P69905 2-142): as the sequence (P69905 2-142) above
Chain of hemoglobin (P68871 2-147, further chain): as the sequence (P68871 2-147, further chain) above
Chain of IsdB (Staphylococcus aureus) (A7X146 41-613): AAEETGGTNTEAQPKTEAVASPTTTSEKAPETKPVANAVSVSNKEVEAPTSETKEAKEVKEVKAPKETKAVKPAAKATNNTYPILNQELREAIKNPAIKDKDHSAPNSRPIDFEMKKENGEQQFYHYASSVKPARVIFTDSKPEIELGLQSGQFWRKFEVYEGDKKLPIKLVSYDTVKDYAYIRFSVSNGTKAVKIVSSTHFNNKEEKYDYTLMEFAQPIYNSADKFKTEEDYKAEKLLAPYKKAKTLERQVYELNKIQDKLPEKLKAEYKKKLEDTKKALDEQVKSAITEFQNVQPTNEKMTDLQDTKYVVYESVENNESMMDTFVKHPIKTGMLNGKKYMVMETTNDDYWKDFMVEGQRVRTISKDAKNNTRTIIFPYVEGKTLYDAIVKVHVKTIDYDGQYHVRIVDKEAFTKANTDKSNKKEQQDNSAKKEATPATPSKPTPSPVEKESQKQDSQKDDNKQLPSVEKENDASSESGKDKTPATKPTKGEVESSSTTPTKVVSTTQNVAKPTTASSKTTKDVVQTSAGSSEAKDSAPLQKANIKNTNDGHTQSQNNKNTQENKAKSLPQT

| Substance | Kd [1] [nM] | Kd [2] [nM] |
| --- | --- | --- |
| hemoglobin (from UniProt P69905) | 35 | – |
| oxyhemoglobin dimer (from UniProt P69905) | – | 250 |
